Experiment [1] deals with T1, 12mTau-acK280 peptide (human).
T1 chain: VQIINK(Ac)KLDLSN
Briefly: BLI. (In general: Biolayer interferometry detects binding as a change in optical thickness at a sensor tip.)

For experiment [2], the target named is T1, 12mTau-acK280 peptide. Briefly: BLI.

Where no end group is shown, it is not given here.

B1: Y01, monoclonal anti–tau-acK280 antibody (antibody, V domains shown)
VH: QVQLQESGPGLVKPSQTLSLTCTVSGDSITSGYWNWIRQPPGKGLEYIGYIRYSGRTYYNPSLKSRVTISRDTSKNQFSLKLSSVTAADTAVYYCASVYFTYWGQGTLVTVSS
VL: DVVMTQTPLSLPVTLGQPASISCKSSQSLLDSDGKTYLNWFQQRPGQSPKRLISLVSKLDSGVPDRFSGSGSGTDFTLKISRVEAEDVGVYYCWQGSHFPYTFGQGTKLEIK
In the case of B1, in the experiment with 12mTau-acK280 peptide [1], the koff (as a rule, the first-order rate constant of dissociation) was determined as 0.000115 s⁻¹. Besides, in the experiment with 12mTau-acK280 peptide [2], the Kd (commonly the equilibrium constant for the complex coming apart) turned out to be 257 pM.

The record behind these values is PMC10104896 (2023).
